Laboratory results as given in IntAct's records for PubMed 11494128.

B1: Ephrin type-B receptor 2 (Gallus gallus (Chicken)), P28693 (parent)
chain: MGPLWFCCLPLALLPLLAAVEETLMDSTTATAELGWMVHPPSGWEEVSGYDENMNTIRTYQVCNVFESSQNNWLRTKYIRRRGAHRIHVEMKFSVRDCSSIPNVPGSCKETFNLYYYESDFDSATKTFPNWMENPWMKVDTIAADESFSQVDLGGRVMKINTEVRSFGPVSKNGFYLAFQDYGGCMSLIAVRVFYRKCPRVIQNGAVFQETLSGAESTSLVAARGTCISNAEEVDVPIKLYCNGDGEWLVPIGRCMCRPGYESVENGTVCRGCPSGTFKASQGDEGCVHCPINSRTTSEGATNCVCRNGYYRADADPVDMPCTTIPSAPQAVISSVNETSLMLEWTPPRDSGGREDLVYNIICKSCGSGRGACTRCGDNVQFAPRQLGLTEPRIYISDLLAHTQYTFEIQAVNGVTDQSPFSPQFASVNITTNQAAPSAVSIMHQVSRTVDSITLSWSQPDQPNGVILDYELQYYEKNLSELNSTAVKSPTNTVTVQNLKAGTIYVFQVRARTVAGYGRYSGKMYFQTMTEAEYQTSVQEKLPLIIGSSAAGLVFLIAVVVIIIVCNRRRGFERADSEYTDKLQHYTSGHSTYRGPPPGLGVRLFVMTPGMKIYIDPFTYEDPNEAVREFAKEIDISCVKIEQVIGAGEFGEVCSGHLKLPGKREIFVAIKTLKSGYTEKQRRDFLSEASIMGQFDHPNVIHLEGVVTKSSPVMIITEFMENGSLDSFLRQNDGQFTVIQLVGMLRGIAAGMKYLADMNYVHRDLAARNILVNSNLVCKVSDFGLSRFLEDDTSDPTYTSALGGKIPIRWTAPEAIQYRKFTSASDVWSYGIVMWEVMSYGERPYWDMTNQDVINAIEQDYRLPPPMDCPNALHQLMLDCWQKDRNHRPKFGQIVNTLDKMIRNPNSLKAMAPLSSGVNLPLLDRTIPDYTSFNTVDEWLDAIKMSQYKESFASAGFTTFDIVSQMTVEDILRVGVTLAGHQKKILNSIQVMRAQMNQIQSVEV

Variants of: B1
Details: with abl1_mouse Abl1, P00520
abl1_mouse Abl1, P00520, sequence (P00520 whole entry): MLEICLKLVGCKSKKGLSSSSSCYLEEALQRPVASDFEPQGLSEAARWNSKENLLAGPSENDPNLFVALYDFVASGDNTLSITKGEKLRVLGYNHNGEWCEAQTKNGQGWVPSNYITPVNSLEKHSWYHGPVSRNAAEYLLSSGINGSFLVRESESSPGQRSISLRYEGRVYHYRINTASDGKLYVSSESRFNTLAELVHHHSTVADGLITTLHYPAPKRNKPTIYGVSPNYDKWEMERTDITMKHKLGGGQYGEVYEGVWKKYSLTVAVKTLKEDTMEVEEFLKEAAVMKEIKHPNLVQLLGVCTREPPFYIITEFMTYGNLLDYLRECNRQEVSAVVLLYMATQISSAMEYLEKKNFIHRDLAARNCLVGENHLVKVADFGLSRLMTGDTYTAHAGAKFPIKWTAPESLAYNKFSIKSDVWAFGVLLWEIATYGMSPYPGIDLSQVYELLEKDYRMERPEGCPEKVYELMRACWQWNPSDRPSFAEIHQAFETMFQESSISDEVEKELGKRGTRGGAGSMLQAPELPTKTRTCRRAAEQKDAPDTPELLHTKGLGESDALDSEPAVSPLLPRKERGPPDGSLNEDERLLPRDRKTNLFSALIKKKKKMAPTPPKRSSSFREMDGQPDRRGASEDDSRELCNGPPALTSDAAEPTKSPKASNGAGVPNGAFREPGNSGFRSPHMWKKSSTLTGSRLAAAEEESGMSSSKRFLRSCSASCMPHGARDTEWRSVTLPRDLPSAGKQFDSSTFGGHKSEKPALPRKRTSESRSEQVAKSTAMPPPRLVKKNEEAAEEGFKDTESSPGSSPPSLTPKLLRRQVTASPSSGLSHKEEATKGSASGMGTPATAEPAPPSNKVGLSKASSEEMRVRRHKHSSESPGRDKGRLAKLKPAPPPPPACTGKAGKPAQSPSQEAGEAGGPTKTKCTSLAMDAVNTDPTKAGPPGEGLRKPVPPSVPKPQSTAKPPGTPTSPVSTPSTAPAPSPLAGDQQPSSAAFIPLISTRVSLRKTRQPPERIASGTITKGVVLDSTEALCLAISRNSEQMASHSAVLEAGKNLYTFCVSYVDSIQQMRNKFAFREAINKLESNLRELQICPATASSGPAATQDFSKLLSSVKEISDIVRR

| effect of a mutation on the interaction | Variant |
| --- | --- |
| decreasing interaction strength | Y614E;Y620E |

Variants of: B1
Details: with abl1_mouse Abl1, P00520
Remark: another data set of the same source

| effect of a mutation on the interaction | Variant |
| --- | --- |
| disrupting interaction strength | Y614E;Y620E |
| decreasing interaction strength | Y620E |
| decreasing interaction strength | Y614E |
